Results: patent US20160083466A1 (Regeneron, published 2016)
Each block holds one binder with its values, some of them ahead of it.

B1: mouse IL-25 expressed with a C-terminal myc-myc-hexahistidine tag (ligand)
chain: VSLRIQEGCSHLPSCCPSKEQEPPEEWLKWSSASVSPPEPLSHTHHAESCRASKDGPLNSRAISPWSYELDRDLNRVPQDLYHARCLCPHCVSLQTGSHMDPLGNSVPLYHNQTVFYRRPCHGEEGTHRRYCLERRLYRVSLACVCVRPRVMAEQKLISEEDLGGEQKLISEEDLHHHHHH
B3: human IL-25 expressed with a C-terminal myc-myc-hexahistidine tag (ligand)
chain: YSHWPSCCPSKGQDTSEELLRWSTVPVPPLEPARPNRHPESCRASEDGPLNSRAISPWRYELDRDLNRLPQDLYHARCLCPHCVSLQTGSHMDPRGNSELLYHNQTVFYRRPCHGEKGTHKGYCLERRLYRVSLACVCVRPRVMGEQKLISEEDLGGEQKLISEEDLHHHHHH
B4: monkey IL-25 expressed with a C-terminal myc-myc-hexahistidine tag (ligand)
chain: YSHWPSCCPSKGYPSEELLRWSTVPVPPLKPASLDFHSVSCRASEDGPLNSRAISPWRYELDRDLNRLPQDLYHARCLCPHCVSLQTGSHMDPRGNSELLYHNQTVFYRRPCHGKKGNHKGYCLERRLYRVSLACVCVRPRVMGEQKLISEEDLGGEQKLISEEDLHHHHHH

Key:
[1] = target: T1, human IL-25 receptor (IL-17RA/IL-17RB) on HEK293/NFκB-luc/hIL17RA/hIL17RB/hAct1 cells (human, UniProt Q96F46 33-866; Q9NRM6 18-502); assay: cell-based or functional assay
T1 sequence (looked up) 1: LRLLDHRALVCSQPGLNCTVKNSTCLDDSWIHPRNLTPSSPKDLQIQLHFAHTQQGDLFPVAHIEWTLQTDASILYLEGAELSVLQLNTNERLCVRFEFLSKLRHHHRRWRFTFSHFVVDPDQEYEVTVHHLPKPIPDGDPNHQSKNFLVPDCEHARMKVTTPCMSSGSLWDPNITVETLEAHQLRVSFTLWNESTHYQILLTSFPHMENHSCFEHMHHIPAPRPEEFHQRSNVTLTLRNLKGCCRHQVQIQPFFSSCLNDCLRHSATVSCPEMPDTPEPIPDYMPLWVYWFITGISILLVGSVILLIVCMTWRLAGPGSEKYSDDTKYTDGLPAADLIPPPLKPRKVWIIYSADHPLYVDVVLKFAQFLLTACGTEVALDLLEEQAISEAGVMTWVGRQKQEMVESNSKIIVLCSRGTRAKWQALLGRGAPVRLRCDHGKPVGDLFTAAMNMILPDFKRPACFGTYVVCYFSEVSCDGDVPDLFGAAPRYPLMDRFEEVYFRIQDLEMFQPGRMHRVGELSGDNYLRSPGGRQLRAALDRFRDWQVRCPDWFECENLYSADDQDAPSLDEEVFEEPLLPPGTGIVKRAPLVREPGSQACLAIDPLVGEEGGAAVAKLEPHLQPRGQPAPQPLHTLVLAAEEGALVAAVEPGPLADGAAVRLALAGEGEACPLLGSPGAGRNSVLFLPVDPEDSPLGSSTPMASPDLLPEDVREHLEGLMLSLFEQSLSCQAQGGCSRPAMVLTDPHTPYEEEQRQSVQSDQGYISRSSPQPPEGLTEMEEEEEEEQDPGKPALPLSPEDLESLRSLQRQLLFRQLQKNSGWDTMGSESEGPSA
T1 sequence (looked up) 2: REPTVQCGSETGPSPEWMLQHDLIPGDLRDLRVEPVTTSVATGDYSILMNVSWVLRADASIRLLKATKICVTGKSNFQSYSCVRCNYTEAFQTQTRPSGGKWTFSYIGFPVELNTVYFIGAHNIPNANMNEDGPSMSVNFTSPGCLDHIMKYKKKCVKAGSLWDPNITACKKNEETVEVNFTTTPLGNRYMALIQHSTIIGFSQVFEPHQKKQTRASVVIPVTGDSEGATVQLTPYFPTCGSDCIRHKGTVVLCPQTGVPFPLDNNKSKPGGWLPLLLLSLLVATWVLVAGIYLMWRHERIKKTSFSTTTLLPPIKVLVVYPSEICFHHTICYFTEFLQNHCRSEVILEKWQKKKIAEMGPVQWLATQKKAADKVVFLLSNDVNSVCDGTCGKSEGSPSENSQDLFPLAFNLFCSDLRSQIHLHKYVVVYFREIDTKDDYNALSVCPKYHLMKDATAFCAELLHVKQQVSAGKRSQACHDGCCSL

[2] = target: B3; assay: cell-based or functional assay
[3] = target: B4; assay: cell-based or functional assay
[4] = target: B1; assay: cell-based or functional assay
[5] = target: B3; assay: cell-based or functional assay
[6] = target: B4; assay: SPR Biacore, antibody captured, 37C;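 for 100 nM Monkey IL-25-MMH Bound (RU): biacore 4000 surface plasmon resonance biosensor measuring binding of IL-25-MMH to purified anti-IL-25 antibodies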;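 for 100 nM Mouse IL-25-MMH Bound (RU): Real-time sensorgrams of IL-25-MMH binding to purified anti-IL-25 antibodies, rate constants obtained by fitting a 1:1 binding model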
Procedure: (§1) Equilibrium dissociation constants (KD values) for IL-25 binding to purified anti-IL-25 antibodies were determined using a real-time surface plasmon resonance biosensor assay on a Biacore 4000 instrument (GE Healthcare). […] All the IL-25 reagents were expressed with a C-terminal myc-myc-hexahistidine tag (referred to herein as “IL-25-MMH”). […] Kinetic association (kₐ) and dissociation (kd) rate constants were determined by fitting the real-time sensorgrams to a 1:1 binding model using Scrubber 2.0c curve fitting software.

[7] = target: B1; assay: SPR Biacore, antibody captured, 25C
Procedure: as §1

[8] = target: B1; assay: SPR Biacore, antibody captured, 37C;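 for 100 nM Monkey IL-25-MMH Bound (RU): biacore 4000 surface plasmon resonance biosensor measuring binding of IL-25-MMH to purified anti-IL-25 antibodies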;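 for 100 nM Mouse IL-25-MMH Bound (RU): Real-time sensorgrams of IL-25-MMH binding to purified anti-IL-25 antibodies, rate constants obtained by fitting a 1:1 binding model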
Procedure: as §1

[9] = target: T2, rat IL-25 expressed with a C-terminal myc-myc-hexahistidine tag (rat); assay: SPR Biacore, antibody captured, 25C;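 note: purified anti-IL-25 antibodies were tested by real-time surface plasmon resonance on a Biacore 4000, with rate constants obtained from sensorgram fits to a 1:1 binding model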
T2 construct: also called Rat IL-25-MMH
T2 chain: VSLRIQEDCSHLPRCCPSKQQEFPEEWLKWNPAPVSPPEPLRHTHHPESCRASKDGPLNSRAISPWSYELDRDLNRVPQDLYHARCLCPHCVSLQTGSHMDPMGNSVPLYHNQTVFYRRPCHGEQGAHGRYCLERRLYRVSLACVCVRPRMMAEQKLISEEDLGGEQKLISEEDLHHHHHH
Procedure: as §1

[10] = target: T2, rat IL-25 expressed with a C-terminal …; assay: SPR Biacore, antibody captured, 37C;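 for 100 nM Monkey IL-25-MMH Bound (RU): biacore 4000 surface plasmon resonance biosensor measuring binding of IL-25-MMH to purified anti-IL-25 antibodies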;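 for 100 nM Mouse IL-25-MMH Bound (RU): Real-time sensorgrams of IL-25-MMH binding to purified anti-IL-25 antibodies, rate constants obtained by fitting a 1:1 binding model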
Procedure: as §1

[11] = target: B3; assay: BLI Octet, hIL-25-MMH captured on anti-Penta-His sensor, 25C
Procedure: Binding competition between anti-IL-25 monoclonal antibodies was determined using a real time, label-free bio-layer interferometry assay on an Octet QK384 biosensor (Pall ForteBio Corp.).
The biosensors were washed in HBST kinetics buffer in between every step of the experiment. The real-time binding response was monitored during the course of the experiment and the binding response at the end of every step was recorded.

[12] = target: B3; assay: competition ELISA, 2 nM hIL-25-MMH binding to coated hIL-17RB-hFc
Procedure: (§2) Data analysis was performed using a sigmoidal dose-response model within Prism™ software (GraphPad). […] The absorbance values of the wells containing the highest concentration for each antibody were used to determine the percent maximum blockade.

[13] = target: B3; assay: competition ELISA, 2 nM hIL-25-MMH binding to coated hIL-17RB-hFc; (*) below theoretical bottom of the assay
Procedure: as §2

Binder: B1
EC50, NFκB-luciferase activation of HEK293/NFκB-luc/hIL17RA/hIL17RB/hAct1 cells [1]: 0.0084 nM

IC50, luciferase reporter cells, 5 pM hIL-25-MMH [2]: 4.6e-10 M
IC50, luciferase reporter cells, 12 pM MfIL-25-MMH [3]: 2.1e-10 M
IC50, luciferase reporter cells, 10 pM mIL-25-MMH [4]: 8.8e-10 M
IC50 values of antibodies for blocking IL-5 release from Donor #727058-059 [5]: 0.172 nM
IC50 values of antibodies for blocking IL-5 release from Donor #727060 [5]: 0.13 nM
100 nM Monkey IL-25-MMH Bound (RU) [6]: 64 RU
Kd [6]: 0.104 nM
koff [6]: 5.45e-05 s⁻¹
kon [6]: 524000 M⁻¹ s⁻¹
t½ [6]: 3.53 h
100 nM Mouse IL-25-MMH Bound (RU) [7]: 40 RU
Kd [7]: 0.57 nM
koff [7]: 9.89e-05 s⁻¹
kon [7]: 174000 M⁻¹ s⁻¹
t½ [7]: 1.95 h
100 nM Mouse IL-25-MMH Bound (RU) [8]: 51 RU
Kd [8]: 0.243 nM
koff [8]: 8.97e-05 s⁻¹
kon [8]: 369000 M⁻¹ s⁻¹
t½ [8]: 2.15 h
100 nM Rat IL-25-MMH Bound (RU) [9]: 45 RU
Kd [9]: 0.341 nM
koff [9]: 8.81e-05 s⁻¹
kon [9]: 259000 M⁻¹ s⁻¹
t½ [9]: 2.18 h
100 nM Rat IL-25-MMH Bound (RU) [10]: 53 RU
Kd [10]: 0.238 nM
koff [10]: 0.000107 s⁻¹
kon [10]: 450000 M⁻¹ s⁻¹
t½ [10]: 1.8 h
50 ug/mL mAb-1 Binding (nm) [11]: 1.07 nm
% Maximum blocking of 200 nM antibody [12]: 89%
IC50 [13]: 0.65 nM
B2: H4H10876P (antibody, human IgG4, V domains shown)
VH: QVQLVQSGAEVKKPGASVKVSCKASEYTFSNYGISWVRQAPGQGLEWLGWIGAYSGFTKYAQKVQDRITMTTDASTTTAYMELRNLRSDDTAVYYCARVGTGTDSYFDFWGQGTLVTVSS
VL: DIQMTQSPSSLSASVGDRVTITCRASQNINSHLNWYQQKPGKAPKLLIYTASSLQSGVPLRFSGSGSGTDFTLTISSLQPEDFGIYICQQTYITPLTFGGGTKVEIK
notes: H4H prefix = human IgG4 Fc

Binder: B3
EC50, NFκB-luciferase activation of HEK293/NFκB-luc/hIL17RA/hIL17RB/hAct1 cells (first assay day) [1]: 0.0029 nM
EC50, NFκB-luciferase activation of HEK293/NFκB-luc/hIL17RA/hIL17RB/hAct1 cells (second assay day) [1]: 0.016 nM

Binder: B4
EC50, NFκB-luciferase activation of HEK293/NFκB-luc/hIL17RA/hIL17RB/hAct1 cells [1]: 0.019 nM
